Measured values published in patent US10501502B2, “Allophycocyanin alpha-subunit evolved labeling proteins (smURFPs)” (The Regents of the University of California, priority 2016, dated 2019).
Where a chain is given by its changes, count along the chain named.

B1: R11-2: evolved APCα FP, SEQ ID NO: 12, with BV (protein)
chain: MKTCEQRVNIATLLTENKKKIVDKASQDLWRRHPDLIAPGGIAFSQRDRALCLRDYGWYLHLITFCLLAGDKGPIESIGLISIREMYNSLGVPVPAMMESIRCLKEASLSLLEEEDANETAPYFDYIIKAMS
modifications: biliverdin chromophore; smRUFP Variant Polypeptide
B2: R3-2 + PCB: evolved APCα FP, SEQ ID NO: 4, with PCB (protein)
chain: MKTGEQRVKIATLLSENEKKIVDKASQDLWRRRPDFIAPGGIAFGQRERALCLRDYGWYLRLITFCLLAGDKDPIESIGLIGIREMYNSLGVPVPGMMESIRCLKEASLSLLDEEDAKETAPYFDYIIQAMS
modifications: phycocyanobilin chromophore; smRUFP Variant Polypeptide
B3: R8-8: evolved APCα FP, SEQ ID NO: 9, with BV (protein)
chain: B1 chain with N9K, T15S, S82G, E113D
modifications: biliverdin chromophore; smRUFP Variant Polypeptide
B4: R8-9: evolved APCα FP, SEQ ID NO: 10, with BV (protein)
chain: B1 chain with T15S, H33R, S82G, A96D, E113D, N118K
modifications: biliverdin chromophore; smRUFP Variant Polypeptide
B5: R7-7: evolved APCα FP, SEQ ID NO: 8, with BV (protein)
chain: B1 chain with N9K, T15S, D48E, S82G, A96G, E113D, N118K, M131I
modifications: biliverdin chromophore; smRUFP Variant Polypeptide

System: Escherichia coli
Experiment: Fluorescence of FPs expressed in Escherichia coli
Type: cell-based
Conditions: not given
Experimental: TeAPCα gene (codons optimized for Escherichia coli) was made by GenScript. Mutations were placed by random mutagenesis using GeneMorphII Random Mutagenesis Kit (Agilent Technologies). Screens for mutants that fluoresce with PCB or BV were performed by subcloning into a pBAD vector (Life Technologies) that expressed cyanobacteria Synechocystis HO-1 and Synechocystis PcyA genes for PCB production and Synechocystis HO-1 only for BV production, as previously described^34. Libraries were expressed in TOP 10 Electrocompetent Escherichia coli cells (Life Technologies) with addition of 0.2% arabinose to LB agar plates (FPs were constitutively expressed in Escherichia coli). Fluorescence was imaged on plates using a BioSpectrum AC Imaging System (UVP) with EX/EM=628(40)/690(50) nm for FPs+PCB, EX/EM=685(40)/710LP nm for rounds 4 and 5 FPs+BV, and EX/EM=650(13)/690(50) nm for Cy5-like FPs+BV (rounds 6-12). At round 6, 5-10 of the brightest colonies on each plate were combined in LB+0.2% arabinose, grown ˜18 h, mixture of plasmid DNA was purified, and TOP10 cells were transformed and plated on LB agar plates+0.2% arabinose. Fluorescence was screened on plates (as described above), 10-20 of the brightest colonies were screened in liquid culture fluorescence (FIG. 7a-e), plasmid DNA was purified, and DNA was sequenced. The plasmid DNA of 2-3 of the brightest FPs was chosen for mutagenesis for the subsequent round. When choosing DNA for subsequent mutagenesis rounds, genes with increased and/or novel silent DNA mutations were chosen over other DNA that had the same DNA and/or protein sequence of the previous round. Site-specific mutagenesis was performed using QuikChange Lightning Mutagenesis Kit (Agilent Technologies) to create smURFP (C4S mutation) and smURFP C52S.

Row | Molecule | fluorescence when expressed in E. coli (qualitative)
1 | B1 | slightly more fluorescent than R10-10
2 | B2 | lacked fluorescence with BV

Same assay, conditions: expressed in E. coli with HO-1

Row | Molecule | fold brighter than R4-1
3 | B3 | 5.8 fold
4 | B4 | 5.7 fold
5 | B5 | 1.3 fold

System: not listed separately
Experiment: FP purification and fluorescence characterization in vitro (spectra, extinction coefficient, quantum yield)
Type: physicochemical
Conditions: not given
Experimental: FP genes were expressed on a pBAD vector (Life Technologies) with a polyhistidine tag on the C terminus, cells were lysed with B-PER (Thermo Scientific), and purified using Ni-NTA (Qiagen) puri-fication. PCB (HO-1+PcyA) and BV (HO-1) incorporation in Escherichia coli was performed simultaneously during constitu-tively active FP expression. Extinction coefficient was determined by PCB or BV absorbance as described35,36 (Table 3, smURFP+BV and TDsmURFP+BV, and Table 2) or calculated for the apoproteins by determining the protein concentration by the BCA protein assay (Pierce), and a specific chromo-phore concentration was added (specified in the Purification of FP lacking chromophore and in vitro chromophore incorporation section) to get 1 and 2 chromophore species (Table 5, not including (Escherichia coli)). When FP chromophore (PCB or BV) was expressed in Escherichia coli, the PCB and BV Q band had absorbance that overlapped with detection of BCA or Bradford assay of 562 nm and 592 nm, respectively. We used the previously published protocols35,36, where there was no change of the BV absorbance at 390 nm when free in solution or attached to the FP. smURFP+BV denaturation with 1 M urea caused no change in the BV absorbance at 390 nm, but the Q band was reduced ˜20-fold. Therefore, the extinction coefficient of BV at 390 nm was used to calculate the concentration of holoprotein (FP+PCB or BV) concentration.
EX and EM spectra were obtained using SPEX Fluorolog fluorometer (Horiba). Absorbance spectra were obtained using UV-VIS Spectrophotometer Cary Eclipse (Varian) or UV-2700 (Shimadzu). Quantum yield was determined relative to Cy5. Incorporation rates of BV on 0.5 μM smURFP was performed by addition of smURFP to PBS alone or with 20% fetal bovine serum (FBS) and mixed by pipetting in a quartz cuvette. Chromophore was added last, mixed by pipetting, and fluorescence was recorded using SPEX Fluorolog fluorometer (Horiba). Photobleaching was characterized on bubbles of purified FP or Cy5 within mineral oil using light from a 150 W xenon arc lamp with 100% light through EX/EM=628(40)/680(30) nm for smURFP, TDsmURFP, and Cy5 or EX/EM=665 (45)/725 (50) nm for IFP 1.4 focused with a 40×, 1.2 numerical aperture C-Apochromat oil-immersion lens on a Zeiss Axiovert 200M inverted microscope. Photobleaching times were normalized to reflect an initial illumination intensity producing 1,000 photons per fluorescent molecule per second as previously described^37.
HO-1 was removed by digesting the pBAD vector (Life Technology) with MscI and PmeI (NEB). smURFP and TDsmURFP were expressed and purified as described above. No chromophore was present on smURFP and TDsmURFP (confirmed by UV, fluorescence imaging, and MS). For predominant fluorescent species+2 chromophores, a ten-fold excess of chromophore was added to smURFP and TDsmURFP. For predominant fluorescent species+1 chromophore, a quarter concentration of chromophore was added to smURFP and TDsmURFP. Chromophore was added in PBS+10% FBS at 37° C. overnight. smURFP+chromophore and TDsmURFP+chromophore were purified using NiNTA (Qiagen) to remove excess or noncovalently attached chromophore.

Row | Molecule | extinction coefficient (EC) | quantum yield (QY)
6 | B3 | 260,000 M^−1cm^−1 | 13%
7 | B2 | 74,000 M^−1cm^−1 | 13%
8 | B4 | 175,000 M^−1cm^−1 | 12%
9 | B5 | 250,000 M^−1cm^−1 | 16%

Same assay, conditions: Table 4

Row | Molecule | Molecular Brightnes Relative to smURFP
10 | B3 | 104%
11 | B1 | 70%
12 | B2 | 30%
13 | B4 | 65%
14 | B5 | 123%

Same assay, conditions: evolved APCα FPs, Table 4

Row | Molecule | Emission Maximum | Excitation Maximum | Extinction Coefficient | Quantum Yield
15 | B3 | 672 nm | 648 nm | 260,000 M^−1 cm^−1 | 13%
16 | B1 | 672 nm | 642 nm | 190,000 M^−1 cm^−1 | 12%
17 | B2 | 648 nm | 620 nm | 74,000 M^−1 cm^−1 | 13%
18 | B4 | 672 nm | 644 nm | 175,000 M^−1 cm^−1 | 12%
19 | B5 | 676 nm | 648 nm | 250,000 M^−1 cm^−1 | 16%
